We go through 11 molecules from patent US11702666B2, “Cell-based assay for determining activity in the retinoblastoma pathway” (Medical Diagnostic Laboratories, LLC, priority 2017, dated 2023).

The assay concerns Rb/E2F1-Dp-1 complex. Nature of the assay: CDK4 mutant activity / drug resistance in NanoBiT assay, stable cell line #11. To be noted: for luciferase signal compared to WT CDK4 (in words): no drug; for Observed drug resist.: Palbociclib/Ribociclib, KD = kinase dead. The class given is cell-based, human. How it is done: A linear expression cassette of mutated CDK4 or CDK6 was generated by PCR mediated overlapping extension method. A pair of forward and reverse primers containing the targeted mutations was designed. The mutated codon was located in the middle of a primer flanked by 18-21 nucleotides on each side. Two PCRs (named as PCR #1 and PCR #2 in FIG. 1) were performed using UF-CMV forward and mutated reverse primers, or mutated forward and BGH-UR primers. The PCR products were cleaned up by ExoSAP-IT® (Affymetrix) to remove unconsumed dNTPs and primers. The treated PCR products were mixed together followed by dilution with water. A second round of PCR was performed using the diluted PCR mixture, and the UF and UR primers (FIG. 1). The amplified products were gel-purified. The DNA concentration was quantitated by the optical density at 260 nm using Nanodrop. The targeted mutations were incorporated in the CDK4 or CDK6 genes during the PCR mediated overlapping extension method. The introduced mutations were confirmed by the DNA sequencing.
To examine the ability of the assay to detect variants in CDK4 or CDK6 that affect function, kinase dead mutants and COSMIC (Catalogue Of Somatic Mutations in cancer) unknown mutants were created. For comparison, hyperactive CDK4 or CDK6 mutants known to be hyperactive due to less binding to natural inhibitor p16 were also created. The mutations in CDK4 or CDK6 were created by site-directed mutagenesis. WT or mutated CDK4 or CDK6 along with the CyclinD1 and SB-Rb were co-transfected, under similar conditions as previously indicated (see FIG. 9).
To examine the specificity of the assay, particular CDK4 kinase dead mutants were created. Modifications to D158 were made by changing aspartate to nonpolar alanine (D158A) or positively charged arginine (D158R). […] The mutations in CDK4 were created by site-directed mutagenesis. WT or mutated CDK4 along with the CyclinD1 and SB-Rb was co-transfected into the #11 cell line, under the same conditions as previously indicated. […] Kinase dead mutants have the high signal due to inability to phosphorylate Rb.
Computer modeling was used to reveal the drug-binding pocket and predict drug-resistant mutants. The mutations in CDK4 and CDK6 were created by site-directed mutagenesis. WT or mutated CDK4 or CDK6 along with the CyclinD1 and SB-Rb was co-transfected into #11 cell line, under the same conditions as previously indicated. […] Dose response curves are presented on FIG. 13A and FIG. 13B. Activity of other mutants was very similar to the WT or KD.
CDK4 and CDK6 mutants with known function and unknown function taken from the COSMIC database were analyzed in the present assay and are summarized in Table 7A and Table 7B. The mutants were classified according to their activity. Table 7A and Table 7B also show the number of counts per mutant in the COSMIC database, type of cancer, and luciferase activity compared to the WT (being 100%).

[1] abbreviates: predicted drug resistant CDK4 mutants, relative to WT.
Where [2] appears, read: predicted drug resistant CDK4 mutants.

“Also recorded” adds a separate entry of the source.

B1: CDK4 R24C: hyperactive CDK4 mutant, COSMIC database (protein, UniProt P11802 2-303, looked up, variant R24C)
Cyclin-dependent kinase 4: ATSRYEPVAEIGVGAYGTVYKACDPHSGHFVALKSVRVPNGGGGGGGLPISTVREVALLRRLEAFEHPNVVRLMDVCATSRTDREIKVTLVFEHVDQDLRTYLDKAPPPGLPAETIKDLMRQFLRGLDFLHANCIVHRDLKPENILVTSGGTVKLADFGLARIYSYQMALTPVVVTLWYRAPEVLLQSTYATPVDMWSVGCIFAEMFRRKPLFCGNSEADQLGKIFDLIGLPPEDDWPRDVSLPRGAFPPRGPRPVQSVVPEMEESGAQLLLEMLTFNPHKRISAFRALQHSYLHKDEGNPE
With B1, where the note is “CDK4 mutants, compared to the WT (being 100%)”, the “Luc. activity (/wt)” value turned out to be 91%. Moreover, the “luciferase signal compared to WT CDK4 (in words)” value (CDK4 mutants) is “a little bit lower basal signal than WT”.

B2: CDK4 D158D: CDK4 control with one nucleotide substitution that did not change the amino acid (protein, UniProt P11802 2-303, looked up)
Cyclin-dependent kinase 4: ATSRYEPVAEIGVGAYGTVYKARDPHSGHFVALKSVRVPNGGGGGGGLPISTVREVALLRRLEAFEHPNVVRLMDVCATSRTDREIKVTLVFEHVDQDLRTYLDKAPPPGLPAETIKDLMRQFLRGLDFLHANCIVHRDLKPENILVTSGGTVKLADFGLARIYSYQMALTPVVVTLWYRAPEVLLQSTYATPVDMWSVGCIFAEMFRRKPLFCGNSEADQLGKIFDLIGLPPEDDWPRDVSLPRGAFPPRGPRPVQSVVPEMEESGAQLLLEMLTFNPHKRISAFRALQHSYLHKDEGNPE
modifications: silent D158D nucleotide variant
Take B2: the “luciferase signal compared to WT CDK4 (in words)” value (CDK4 mutants) is “the same activity as a WT”.

B3: CDK4 G18A: predicted drug resistant CDK4 mutant (protein, UniProt P11802 2-303, looked up, variant G18A)
Cyclin-dependent kinase 4: ATSRYEPVAEIGVGAYATVYKARDPHSGHFVALKSVRVPNGGGGGGGLPISTVREVALLRRLEAFEHPNVVRLMDVCATSRTDREIKVTLVFEHVDQDLRTYLDKAPPPGLPAETIKDLMRQFLRGLDFLHANCIVHRDLKPENILVTSGGTVKLADFGLARIYSYQMALTPVVVTLWYRAPEVLLQSTYATPVDMWSVGCIFAEMFRRKPLFCGNSEADQLGKIFDLIGLPPEDDWPRDVSLPRGAFPPRGPRPVQSVVPEMEESGAQLLLEMLTFNPHKRISAFRALQHSYLHKDEGNPE
Consider B3, for which the Luc. activity (/wt) under setting [1] is 97.5%.

B4: CDK4 T102K: predicted drug resistant CDK4 mutant (protein, UniProt P11802 2-303, looked up, variant T102K)
Cyclin-dependent kinase 4: ATSRYEPVAEIGVGAYGTVYKARDPHSGHFVALKSVRVPNGGGGGGGLPISTVREVALLRRLEAFEHPNVVRLMDVCATSRTDREIKVTLVFEHVDQDLRKYLDKAPPPGLPAETIKDLMRQFLRGLDFLHANCIVHRDLKPENILVTSGGTVKLADFGLARIYSYQMALTPVVVTLWYRAPEVLLQSTYATPVDMWSVGCIFAEMFRRKPLFCGNSEADQLGKIFDLIGLPPEDDWPRDVSLPRGAFPPRGPRPVQSVVPEMEESGAQLLLEMLTFNPHKRISAFRALQHSYLHKDEGNPE
On to B4, for which the Luc. activity (/wt) under setting [1] is 162%. In addition, the Observed drug resist. entry under setting [2] was “showed drug resistance; also recorded: Resistant”.

B5: CDK4 I12L: predicted drug resistant CDK4 mutant (protein, UniProt P11802 2-303, looked up, variant I12L)
Cyclin-dependent kinase 4: ATSRYEPVAELGVGAYGTVYKARDPHSGHFVALKSVRVPNGGGGGGGLPISTVREVALLRRLEAFEHPNVVRLMDVCATSRTDREIKVTLVFEHVDQDLRTYLDKAPPPGLPAETIKDLMRQFLRGLDFLHANCIVHRDLKPENILVTSGGTVKLADFGLARIYSYQMALTPVVVTLWYRAPEVLLQSTYATPVDMWSVGCIFAEMFRRKPLFCGNSEADQLGKIFDLIGLPPEDDWPRDVSLPRGAFPPRGPRPVQSVVPEMEESGAQLLLEMLTFNPHKRISAFRALQHSYLHKDEGNPE
In the case of B5, the Luc. activity (/wt) under setting [1] is 126%.

B6: CDK4 T102R: predicted drug resistant CDK4 mutant (protein, UniProt P11802 2-303, looked up, variant T102R)
Cyclin-dependent kinase 4: ATSRYEPVAEIGVGAYGTVYKARDPHSGHFVALKSVRVPNGGGGGGGLPISTVREVALLRRLEAFEHPNVVRLMDVCATSRTDREIKVTLVFEHVDQDLRRYLDKAPPPGLPAETIKDLMRQFLRGLDFLHANCIVHRDLKPENILVTSGGTVKLADFGLARIYSYQMALTPVVVTLWYRAPEVLLQSTYATPVDMWSVGCIFAEMFRRKPLFCGNSEADQLGKIFDLIGLPPEDDWPRDVSLPRGAFPPRGPRPVQSVVPEMEESGAQLLLEMLTFNPHKRISAFRALQHSYLHKDEGNPE
B6: the Luc. activity (/wt) under setting [1] was 156%.

B7: CDK4 F931 T102K: CDK4 double mutant F93I and T102K (protein, UniProt P11802 2-303, looked up, variant F93I T102K)
Cyclin-dependent kinase 4: ATSRYEPVAEIGVGAYGTVYKARDPHSGHFVALKSVRVPNGGGGGGGLPISTVREVALLRRLEAFEHPNVVRLMDVCATSRTDREIKVTLVIEHVDQDLRKYLDKAPPPGLPAETIKDLMRQFLRGLDFLHANCIVHRDLKPENILVTSGGTVKLADFGLARIYSYQMALTPVVVTLWYRAPEVLLQSTYATPVDMWSVGCIFAEMFRRKPLFCGNSEADQLGKIFDLIGLPPEDDWPRDVSLPRGAFPPRGPRPVQSVVPEMEESGAQLLLEMLTFNPHKRISAFRALQHSYLHKDEGNPE
Turning to B7, the Luc. activity (/wt) under setting [1] was 152%. The Observed drug resist. result under setting [2] is “Resistant”.

B8: CDK4 A33S: predicted drug resistant CDK4 mutant (protein, UniProt P11802 2-303, looked up, variant A33S)
Cyclin-dependent kinase 4: ATSRYEPVAEIGVGAYGTVYKARDPHSGHFVSLKSVRVPNGGGGGGGLPISTVREVALLRRLEAFEHPNVVRLMDVCATSRTDREIKVTLVFEHVDQDLRTYLDKAPPPGLPAETIKDLMRQFLRGLDFLHANCIVHRDLKPENILVTSGGTVKLADFGLARIYSYQMALTPVVVTLWYRAPEVLLQSTYATPVDMWSVGCIFAEMFRRKPLFCGNSEADQLGKIFDLIGLPPEDDWPRDVSLPRGAFPPRGPRPVQSVVPEMEESGAQLLLEMLTFNPHKRISAFRALQHSYLHKDEGNPE
For B8, the Luc. activity (/wt) under setting [1] is 182%.

B9: CDK4 A157S: predicted drug resistant CDK4 mutant (protein, UniProt P11802 2-303, looked up, variant A157S)
Cyclin-dependent kinase 4: ATSRYEPVAEIGVGAYGTVYKARDPHSGHFVALKSVRVPNGGGGGGGLPISTVREVALLRRLEAFEHPNVVRLMDVCATSRTDREIKVTLVFEHVDQDLRTYLDKAPPPGLPAETIKDLMRQFLRGLDFLHANCIVHRDLKPENILVTSGGTVKLSDFGLARIYSYQMALTPVVVTLWYRAPEVLLQSTYATPVDMWSVGCIFAEMFRRKPLFCGNSEADQLGKIFDLIGLPPEDDWPRDVSLPRGAFPPRGPRPVQSVVPEMEESGAQLLLEMLTFNPHKRISAFRALQHSYLHKDEGNPE
With B9, the Luc. activity (/wt) under setting [1] is 195%.

B10: CDK4 F93I: predicted drug resistant CDK4 mutant (protein, UniProt P11802 2-303, looked up, variant F93I)
Cyclin-dependent kinase 4: ATSRYEPVAEIGVGAYGTVYKARDPHSGHFVALKSVRVPNGGGGGGGLPISTVREVALLRRLEAFEHPNVVRLMDVCATSRTDREIKVTLVIEHVDQDLRTYLDKAPPPGLPAETIKDLMRQFLRGLDFLHANCIVHRDLKPENILVTSGGTVKLADFGLARIYSYQMALTPVVVTLWYRAPEVLLQSTYATPVDMWSVGCIFAEMFRRKPLFCGNSEADQLGKIFDLIGLPPEDDWPRDVSLPRGAFPPRGPRPVQSVVPEMEESGAQLLLEMLTFNPHKRISAFRALQHSYLHKDEGNPE
For the molecule B10, the Luc. activity (/wt) under setting [1] is 157%. In addition, the Observed drug resist. result under setting [2] is listed as “showed drug resistance; also recorded: Resistant”.

B11: CDK4 L49R: predicted drug resistant CDK4 mutant (protein, UniProt P11802 2-303, looked up, variant L49R)
Cyclin-dependent kinase 4: ATSRYEPVAEIGVGAYGTVYKARDPHSGHFVALKSVRVPNGGGGGGGRPISTVREVALLRRLEAFEHPNVVRLMDVCATSRTDREIKVTLVFEHVDQDLRTYLDKAPPPGLPAETIKDLMRQFLRGLDFLHANCIVHRDLKPENILVTSGGTVKLADFGLARIYSYQMALTPVVVTLWYRAPEVLLQSTYATPVDMWSVGCIFAEMFRRKPLFCGNSEADQLGKIFDLIGLPPEDDWPRDVSLPRGAFPPRGPRPVQSVVPEMEESGAQLLLEMLTFNPHKRISAFRALQHSYLHKDEGNPE
On to B11, for which the Luc. activity (/wt) under setting [1] was 281%.
